From patent publication US10502741B2, “Means and methods for detecting activated MALT1” (Helmholtz Zentrum München Deutsches Forschungszentrum für …, priority 2014, dated 2019)

How the values were obtained:
MALT1 = target: T1, MALT1 (Homo sapiens, UniProt Q9UDY8); assay: MALT1 in vitro cleavage assay using fluorescent substrate; format: biochemical
T1 construct: GST
T1 sequence (Q9UDY8 1-824): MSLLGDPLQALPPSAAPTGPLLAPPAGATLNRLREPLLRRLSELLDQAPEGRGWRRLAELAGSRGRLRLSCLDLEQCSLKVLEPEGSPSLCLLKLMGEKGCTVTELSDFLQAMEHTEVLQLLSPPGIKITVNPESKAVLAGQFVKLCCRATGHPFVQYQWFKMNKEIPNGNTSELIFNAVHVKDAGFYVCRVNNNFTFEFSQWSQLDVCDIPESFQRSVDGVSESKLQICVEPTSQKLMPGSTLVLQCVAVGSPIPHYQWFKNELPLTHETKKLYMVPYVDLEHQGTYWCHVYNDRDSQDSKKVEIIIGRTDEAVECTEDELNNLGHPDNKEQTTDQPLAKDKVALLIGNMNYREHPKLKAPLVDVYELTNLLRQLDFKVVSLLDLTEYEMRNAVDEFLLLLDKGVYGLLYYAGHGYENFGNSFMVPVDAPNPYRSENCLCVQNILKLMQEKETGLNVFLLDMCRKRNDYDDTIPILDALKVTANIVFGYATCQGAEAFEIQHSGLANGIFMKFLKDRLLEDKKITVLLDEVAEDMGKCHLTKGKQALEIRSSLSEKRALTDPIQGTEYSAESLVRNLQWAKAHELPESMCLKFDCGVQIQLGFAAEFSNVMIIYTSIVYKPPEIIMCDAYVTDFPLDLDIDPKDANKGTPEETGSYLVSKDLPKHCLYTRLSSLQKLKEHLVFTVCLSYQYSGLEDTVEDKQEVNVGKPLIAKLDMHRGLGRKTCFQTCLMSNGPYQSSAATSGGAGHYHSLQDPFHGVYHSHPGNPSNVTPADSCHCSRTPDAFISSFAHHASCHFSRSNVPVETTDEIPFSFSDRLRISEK
Procedure: (§1) C) Impact of indicated compounds on MALT1, Caspase8 and cathepsin B was tested in in vitro cleavage assays using fluorescent substrates. Results and SD from three independent experiments are shown.
Preferably, MALT1 activity is determined in a MALT1 cleavage assay. […] The assay may be performed in cleavage buffer comprising for example 50 mM MES, 1 M sodium citrate pH 7, 150 mM NaCl, 10% sucrose, 0.1% chaps, 10 mM DTT. Catalytically active MALT1 cleaves the substrate and an increase of AMC fluorescence can be measured.

cathepsin B = cathepsin B (Homo sapiens, UniProt P07858); assay: Cathepsin B cleavage assay (zRR-AMC substrate); format: biochemical; design: purchased BioVision; conditions: 0.2 ng cathepsin B, 1 mM zRR-AMC, 2 h at 30° C.
Procedure: as §1
0.2 ng cathepsin B together with probe 5, z-VRPR-FMK (SEQ ID No. 6), mepazine or CA-074 was incubated with 1 mM zRR-AMC substrate for 2 h at 30° C. Assay was performed in 0.1 M sodium acetate pH 5.5, 10 mM DTT and 0.1 mM EDTA. Again, increase of AMC fluorescence is measured in a Synergy 2 Microplate Reader (Biotek).

active MALT1 [1] = target: T2, active MALT1 (Homo sapiens, UniProt Q9UDY8); assay: Labeling with diagnostic inhibitor in cell extracts (gel-based, fluorescence scan): active MALT1 band
T2 construct: endogenous in cells; host or cells: Jurkat T cells, primary human PBMCs and T cells, DLBCL cell lines (HBL1, TMD8, OCI-Ly3, OCI-Ly10, U2932, RIVA, BJAB, Su-DHL-4, Su-DHL-6)
T2 sequence (Q9UDY8 1-824): T1 sequence (Q9UDY8 1-824)
Procedure: (§2) Jurkat T cells were cultured in standard RPMI medium containing 10% FCS, 100 U/ml Penicillin/Streptomycin and 2 mM Glutamin. DNA transfection of 6 μg DNA in 8×10^6 Jurkat T cells was performed by electroporation in a GenePulser Xcell (BioRad) with a 220 Volt pulse. For siRNA experiments, Jurkat T cells were transfected with 100 nM siRNA and Atufect transfection reagent (Silence Therapeutics, Berlin). Jurkat T cells were stimulated either with 200 ng/ml PMA (phorbol 12-myristate 13-acetate) and 300 ng/ml Ionomycin (both Calbiochem) or CD3/CD28 antibody co-ligation (human CD3: 1 μg/ml; human CD28: 4 μg/ml; mouse IgG1: 2 μg/ml; mouse IgG2a: 2 μg/ml; BD Biosciences). DLBCL cell lines (HBL1, TMD8, OCI-Ly3, U2932, RIVA, BJAB, Su-DHL-4 and Su-DHL-6) were cultured in standard RPMI medium containing 20% FCS, 100 U/ml Penicillin/Streptomycin and 2 mM Glutamin. OCI-Ly10 cell line was cultured in IMDM containing 20% human serum, 100 U/ml Penicillin/Streptomycin, 2 U/ml heparine, 50 μM β-mercaptoethanol. Inhibitors 10 μM (z-VRPR-FMK, Mepazine, Thioridazine, CA-074Me) were added to the cells in media for 1 h, prior to stimulation and labeling with diagnostic MALT1 inhibitor.
Jurkat T cells (1-2×10^7), primary human PBMCs or primary human T cells (0.25 or 1×10^7) were lysed in 150 μl co-IP buffer without protease inhibitors. DLBCL (3×10^7) were lysed in 250 μl buffer. After centrifugation (14000 rpm, 10 min, 4° C.), 100 μl extract (DLBCL: 200 μl) was stained with probe 5 or probe 6 (3 μM end) for 50 min at 29° C., mixed with 4× loading dye and boiled.

active MALT1 [2] = target: T2, active MALT1; assay: Probe 7-pulldown with streptavidin beads and western blot; format: cell-based; conditions: Jurkat T cells pretreated with 10 μM inhibitors, 0.1 μM probe 7
Procedure: as §2
Untreated DLBCL (1-2×10^7) or Jurkat T cells (stimulated with PMA/Ionomycin or CD3/28 or left untreated; 1-2×10^7), were lysed in 500 μl co-IP buffer without protease inhibitors, centrifuged, incubated with probe 7 (concentration as depicted) for 1 h at RT then incubated with streptavidin beads for 2 h at 4° C. Precipitate was washed, analysed by SDS-PAGE and western blot.

active MALT1 [3] = target: T2, active MALT1; assay: ELISA-based assay (MALT1 ELASA) on streptavidin-coated plates with MALT1 antibody detection; format: cell-based; conditions: inhibitor-treated (10 μM) DLBCL cells, probe 7
Procedure: as §2
Untreated DLBCL (1×10^7), primary T cells (0.25×10^7) or Jurkat T cells (0.2-1×10^7) (stimulated or not) were lysed in 300 μl co-IP buffer without protease inhibitors, centrifuged, incubated with probe 7 (concentration as depicted) for 1 h at RT, then transferred to streptavidin-coated plates (96 well, clear) and incubated o/n at 4° C. After blocking with 2% BSA in PBS-T, detection was performed by incubation with MALT1 primary antibody (1 h, RT) and HRP-coupled secondary antibody (1 h, RT). […] was determined after TMB substrate incubation in a photometer (Bio-Tek).

inhibition of MALT1 protease activity in vitro (MALT1): inhibit MALT1 | effect of inhibitor on probe 6 labeling of active MALT1 (active MALT1 [1]; HBL1 cells, inhibitors 10 μM each): sensitivity | effect of inhibitor on formation of MALT1-probe 7 complexes (active MALT1 [2]): blocked | effect of inhibitor on active MALT1 signal in DLBCL cells (active MALT1 [3]): strongly reduced
Substance: z-VRPR-FMK (Z N-terminal cap, FMK warhead)
inhibition of cathepsin B activity in vitro (cathepsin B): abrogated cathepsin B activity even though slightly less efficient | effect of inhibitor pretreatment on probe 5 labeling of active MALT1 (active MALT1 [1]; Jurkat T cells, 10 μM inhibitor before stimulation, probe 5): prevents binding of diagnostic MALT1-inhibitor
